Assays:
FAM19A5 protein [1] = molecular target: T1, FAM19A5 protein (Homo sapiens, UniProt Q7Z5A7); assay: Co-immunoprecipitation of FLAG-tagged LRRC4 family deletion constructs/fragments with recombinant FAM19A5 in HEK293 cells; format: binding; conditions: HEK293 cells expressing FLAG-tagged construct, recombinant FAM19A5 1 μM 30 minutes; IP anti-FLAG, blot anti-FAM19A5 (3-2)
Experimental: To understand the interaction between FAM19A5 and members of the LRRC4 protein family, HEK293 cells were modified to express a FLAG-tagged member of the LRRC4 protein family, i.e., LRRC4C protein, LRRC4 protein, or LRRC4B protein. Then, the HEK293 cells or primary cortical neurons were treated with recombinant FAM19A5 protein (1 μM) for 30 minutes, and the binding between FAM19A5 protein and the different members of the LRRC4 protein family was assessed using both co-immunoprecipitation and immunofluorescence assays.
For the co-immunoprecipitation assay, cell lysates from the different FAM19A5-treated HEK293 cells were collected and immunoprecipitated with an anti-FLAG antibody, anti-FAM19A5 (1-65) antibody, or a human IgG antibody (control). Immunoprecipitated proteins were immunoblotted with anti-FLAG and anti-FAM19A5 (3-2) antibodies. For the immunofluorescence assay, the HEK293 cells treated with the recombinant FAM19A5 protein were immunostained with anti-FAM19A5 (3-2) (to detect FAM19A5 protein expression) and anti-FLAG antibodies (to detect member of the LRRC4 protein family). The primary cortical neurons treated with the recombinant FAM19A5 protein were immunostained with anti-FAM19A5 (3-2) and anti-LRRC4B antibodies. The nuclei were stained with Hoechst33342 (blue).
To determine the specific motif or domain of the LRRC4B protein that is responsible for the binding to a FAM19A5 protein, various FLAG-tagged LRRC4B deletion constructs were generated (see Table 6 below). HEK293 cells were transfected with the different deletion constructs and then treated with recombinant FAM19A5 protein as described in Example 1. Then, the cell lysates from the different HEK293 cells were immunoprecipitated with the anti-FLAG antibody. The immunoprecipitated proteins were immunoblotted with anti-FLAG and anti-FAM19A5 (3-2) antibodies.
As described in Example 2, all members of the LRRC4 protein family were capable of binding to FAM19A5 protein to varying degrees. Therefore, to compare the bindings domains, the amino acid sequences of the LRRC4B, LRRC4, and LRRC4C proteins were aligned. […] Therefore, to assess whether the corresponding positions of LRRC4 and LRRC4C were important in the binding of these proteins to FAM19A5 protein, cDNAs encoding either (i) LRRC4C protein fragment (amino acids 354-527 of SEQ ID NO: 3; SEQ ID NO: 66) or (ii) LRRC4 protein fragment (amino acids 353-527 of SEQ ID NO: 1; SEQ ID NO: 67) were constructed (see Table 7). HEK293 cells were transfected to express either of the protein fragments and then treated with recombinant FAM19A5 protein as described in Example 1. Then, the cell lysates from the different HEK293 cells were immunoprecipitated with the anti-FLAG antibody. The immunoprecipitated proteins were immunoblotted with anti-FLAG and anti-FAM19A5 (3-2) antibodies.
Target sequence in this assay (Q7Z5A7 44-132): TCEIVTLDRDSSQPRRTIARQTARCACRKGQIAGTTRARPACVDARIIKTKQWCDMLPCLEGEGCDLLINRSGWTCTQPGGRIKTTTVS

FAM19A5 protein [2] = molecular target: T1, FAM19A5 protein; assay: competitive inhibition ELISA; competitor: coated LRRC4B(36-576)-hFc
FAM19A5 protein [3] = molecular target: T1, FAM19A5 protein; assay: competitive inhibition ELISA; competitor: coated LRRC4B(453-576)-hFc

Row | Inhibition rate (%) (FAM19A5 protein [2]) | Inhibition rate (%) (FAM19A5 protein [3]) | Molecule | binding to FAM19A5 protein (co-immunoprecipitation) (FAM19A5 protein [1])
1 |  |  | LRRC4B (364-713): FLAG-tagged LRRC4B deletion construct, amino acids 364-713 of SEQ ID NO: 2 (protein, FLAG tag) PVIVEPPTDLNVTEGMAAELKCRTGTSMTSVNWLTPNGTLMTHGSYRVRISVLHDGTLNFTNVTVQDTGQYTCMVTNSAGNTTASATLNVSAVDPVAAGGTGSGGGGPGGSGGVGGGSGGYTYFTTVTVETLETQPGEEALQPRGTEKEPPGPTTDGVWGGGRPGDAAGPASSSTTAPAPRSSRPTEKAFTVPITDVTENALKDLDDVMKTTKIIIGCFVAITFMAAVMLVAFYKLRKQHQLHKHHGPTRTVEIINVEDELPAASAVSVAAAAAVASGGGVGGDSHLALPALERDHLNHHHYVAAAFKAHYSSNPSGGGCGGKGPPGLNSIHEPLLFKSGSKENVQETQI | able to bind to the FAM19A5 protein with varying degree
2 |  |  | LRRC4B (157-713): FLAG-tagged LRRC4B deletion construct, amino acids 157-713 of SEQ ID NO: 2 (protein, FLAG tag) LSKLRELWLRNNPIESIPSYAFNRVPSLRRLDLGELKRLEYISEAAFEGLVNLRYLNLGMCNLKDIPNLTALVRLEELELSGNRLDLIRPGSFQGLTSLRKLWLMHAQVATIERNAFDDLKSLEELNLSHNNLMSLPHDLFTPLHRLERVHLNHNPWHCNCDVLWLSWWLKETVPSNTTCCARCHAPAGLKGRYIGELDQSHFTCYAPVIVEPPTDLNVTEGMAAELKCRTGTSMTSVNWLTPNGTLMTHGSYRVRISVLHDGTLNFTNVTVQDTGQYTCMVTNSAGNTTASATLNVSAVDPVAAGGTGSGGGGPGGSGGVGGGSGGYTYFTTVTVETLETQPGEEALQPRGTEKEPPGPTTDGVWGGGRPGDAAGPASSSTTAPAPRSSRPTEKAFTVPITDVTENALKDLDDVMKTTKIIIGCFVAITFMAAVMLVAFYKLRKQHQLHKHHGPTRTVEIINVEDELPAASAVSVAAAAAVASGGGVGGDSHLALPALERDHLNHHHYVAAAFKAHYSSNPSGGGCGGKGPPGLNSIHEPLLFKSGSKENVQETQI | able to bind to the FAM19A5 protein with varying degree
3 |  |  | LRRC4B (230-713): FLAG-tagged LRRC4B deletion construct, amino acids 230-713 of SEQ ID NO: 2 (protein, FLAG tag) RLEELELSGNRLDLIRPGSFQGLTSLRKLWLMHAQVATIERNAFDDLKSLEELNLSHNNLMSLPHDLFTPLHRLERVHLNHNPWHCNCDVLWLSWWLKETVPSNTTCCARCHAPAGLKGRYIGELDQSHFTCYAPVIVEPPTDLNVTEGMAAELKCRTGTSMTSVNWLTPNGTLMTHGSYRVRISVLHDGTLNFTNVTVQDTGQYTCMVTNSAGNTTASATLNVSAVDPVAAGGTGSGGGGPGGSGGVGGGSGGYTYFTTVTVETLETQPGEEALQPRGTEKEPPGPTTDGVWGGGRPGDAAGPASSSTTAPAPRSSRPTEKAFTVPITDVTENALKDLDDVMKTTKIIIGCFVAITFMAAVMLVAFYKLRKQHQLHKHHGPTRTVEIINVEDELPAASAVSVAAAAAVASGGGVGGDSHLALPALERDHLNHHHYVAAAFKAHYSSNPSGGGCGGKGPPGLNSIHEPLLFKSGSKENVQETQI | able to bind to the FAM19A5 protein with varying degree
4 | 73% | 56.2% | GYTYFTTVTVETAETQPGEE [FB-20[A12]] | 
5 | 73.4% | 50.3% | GYTYFTTVTVEALETQPGEE [FB-20[A11]] | 
6 |  |  | LRRC4B (453-713): FLAG-tagged LRRC4B deletion construct, amino acids 453-713 of SEQ ID NO: 2 (protein, FLAG tag) VSAVDPVAAGGTGSGGGGPGGSGGVGGGSGGYTYFTTVTVETLETQPGEEALQPRGTEKEPPGPTTDGVWGGGRPGDAAGPASSSTTAPAPRSSRPTEKAFTVPITDVTENALKDLDDVMKTTKIIIGCFVAITFMAAVMLVAFYKLRKQHQLHKHHGPTRTVEIINVEDELPAASAVSVAAAAAVASGGGVGGDSHLALPALERDHLNHHHYVAAAFKAHYSSNPSGGGCGGKGPPGLNSIHEPLLFKSGSKENVQETQI | able to bind to the FAM19A5 protein with varying degree
7 | 17.9% | 11% | GYTYFTAVTVETLETQPGEE [FB-20[A6]] | 
8 | 21.5% | 3.8% | GYTYFTTVTAETLETQPGEE [FB-20[A9]] | 
9 | 2.7% | 1.5% | GYTYATTVTVETLETQPGEE [FB-20[A4]] | 
10 | 53.4% | 22.2% | GYTYFATVTVETLETQPGEE [FB-20[A5]] | 
11 | 26.8% | 7.9% | GYTYFTTATVETLETQPGEE [FB-20[A7]] | 
12 |  |  | LRRC4B (36-713): FLAG-tagged LRRC4B deletion construct, amino acids 36-713 of SEQ ID NO: 2 (protein, FLAG tag) AGGGGVAVTSAAGGGSPPATSCPVACSCSNQASRVICTRRDLAEVPASIPVNTRYLNLQENGIQVIRTDTFKHLRHLEILQLSKNLVRKIEVGAFNGLPSLNTLELFDNRLTTVPTQAFEYLSKLRELWLRNNPIESIPSYAFNRVPSLRRLDLGELKRLEYISEAAFEGLVNLRYLNLGMCNLKDIPNLTALVRLEELELSGNRLDLIRPGSFQGLTSLRKLWLMHAQVATIERNAFDDLKSLEELNLSHNNLMSLPHDLFTPLHRLERVHLNHNPWHCNCDVLWLSWWLKETVPSNTTCCARCHAPAGLKGRYIGELDQSHFTCYAPVIVEPPTDLNVTEGMAAELKCRTGTSMTSVNWLTPNGTLMTHGSYRVRISVLHDGTLNFTNVTVQDTGQYTCMVTNSAGNTTASATLNVSAVDPVAAGGTGSGGGGPGGSGGVGGGSGGYTYFTTVTVETLETQPGEEALQPRGTEKEPPGPTTDGVWGGGRPGDAAGPASSSTTAPAPRSSRPTEKAFTVPITDVTENALKDLDDVMKTTKIIIGCFVAITFMAAVMLVAFYKLRKQHQLHKHHGPTRTVEIINVEDELPAASAVSVAAAAAVASGGGVGGDSHLALPALERDHLNHHHYVAAAFKAHYSSNPSGGGCGGKGPPGLNSIHEPLLFKSGSKENVQETQI | able to bind to the FAM19A5 protein with varying degree
13 | 3.9% | -0.4% | GYTYFTTVAVETLETQPGEE [FB-20[A8]] | 
14 | 19.6% | 6.4% | GYTYFTTVTVATLETQPGEE [FB-20[A10]] | 
15 | 51.4% | 27.2% | GYTYFTTVTVETLATQPGEE [FB-20[A13]] | 

From patent publication US20240238445A1, “INHIBITORS AND USES THEREOF” (NEURACLE SCIENCE CO., LTD., priority 2021, published 2024)
